Measured values as given in patent US20180155411A1.

How the values were obtained:
[1] = target: VP7 of rotavirus strain 116E (G9P[11]) (human rotavirus), Q99706; assay: cell-based or functional assay
[2] = target: VP4 of rotavirus strain 116E (G9P[11]) (human rotavirus), Q99706; assay: cell-based or functional assay
Chain of VP4 of rotavirus strain 116E (G9P[11]) (human rotavirus), Q99706 (Q99706 22-377): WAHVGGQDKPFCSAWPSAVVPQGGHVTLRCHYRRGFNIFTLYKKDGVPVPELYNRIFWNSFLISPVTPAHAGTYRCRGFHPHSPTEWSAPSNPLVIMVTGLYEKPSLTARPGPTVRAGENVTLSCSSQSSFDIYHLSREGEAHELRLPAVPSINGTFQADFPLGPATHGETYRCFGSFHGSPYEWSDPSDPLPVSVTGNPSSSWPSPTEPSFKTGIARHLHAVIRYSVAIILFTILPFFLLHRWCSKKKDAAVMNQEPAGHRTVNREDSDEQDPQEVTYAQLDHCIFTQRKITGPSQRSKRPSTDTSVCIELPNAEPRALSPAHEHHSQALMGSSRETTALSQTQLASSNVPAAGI

Chain of VP7 of rotavirus strain 116E (G9P[11]) (human rotavirus), Q99706 (Q99706 22-377): as above

Row | Binder | in vitro neutralization [1] [ng/mL] | in vitro neutralization [2] [ng/mL]
1 | mAb #46 (antibody, V domains shown) VH: QVQLQESGPGLVKPSETLSLTCTVSGGSINSYYWSWIRQSPGKGLEWIGYVFYSGITKYNPSLQSRVTISLDMGKNQFSLKLTSVNAADAAVYYCARNFPSYTPDWFFDLWGRGTLVTVSS VL: EIVLTQSPGTLSLSPGERATLSCRASQSVSSDNLAWYQQKPGQPPRLLIYGASHRATGIPDRFSGSGSGTDFTLTISRLEPEDFAVYHCQQYGSSPLTFGGGTKVEIK | > 625 | –
2 | mAb #49 (antibody, V domains shown) VH: DVQLVESGGGLVQPGGSVRLSCSASRFTFSNYAMYWVRQAPGKGLEYVSSISSDGGSTYYAESVKGRFTISRDNSKNTLYLQMRSLRAEDAAVYYCVTDVLRLPYSTGWSPGDFIYWGQGTLVTVSS VL: DIQMTQSPSILYASVGDRVTITCRASQSVSSWLAWYQQKPGKVPKLLIYQASTLENGVPSRFSGSGSGTEFILTISSLQPDDFATYYCQHYNVLWTFGQGTKVEIK | – | > 625
3 | mAb #57 (antibody, V domains shown) VH: QVQLVESGGGVVQSGRSLRLSCAASGFTFRSYAMHWVRQAPGKGLEWVADLSLDGSHKYADSVRGRFTISSDSSKNTVYLQMNSLRTEDTAIYYCARAAGIMVAGTFLTEFYFDYWGQGTLVTVSS VL: QSVLTQPPSVSGAPGQRVTISCTGSSSNIGAGYDVHWYQQLPGTAPKLLIYGNIKRPSGVPDRFSGSKSGTSASLAITGLQTEDEADYYCQSYDSSLSAYYVFGTGTRVTVL | > 625 | –
